Earlier results, collected in PMC4074225.

Target: PCNA (Homo sapiens) (UniProt P12004)
Assay: SPR

Sequence of UniProt P12004 (P12004 whole entry): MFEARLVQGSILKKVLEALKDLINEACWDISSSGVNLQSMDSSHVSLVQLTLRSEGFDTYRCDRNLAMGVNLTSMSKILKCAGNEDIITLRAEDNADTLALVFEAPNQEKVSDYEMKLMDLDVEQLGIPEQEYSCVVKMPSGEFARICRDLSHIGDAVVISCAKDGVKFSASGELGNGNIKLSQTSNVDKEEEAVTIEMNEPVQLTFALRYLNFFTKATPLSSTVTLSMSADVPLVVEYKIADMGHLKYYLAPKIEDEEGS

Kd: 400 nM
Substance: DNA polymerase eta 694-713 (from UniProt Q9Y253)
